This note sets out measurements from patent US20020155503.

In series [1] the target is T1, Lys-Lys-Lys-Lys-Ala-Asp-Glu-Glu-Asp-Tyr-Phe-Ile-Pro-Pro-Ala.
T1 chain: KKKKADEEDYFIPPA

In series [2] the target is Serine-tyrosine-phenylalanine-histamine-glutamine.

B1: catalytic domain of human ZAP-70 (amino acid 306-615), recombinant, from baculovirus-infected Sf9 cells (protein)
chain: RPMPMDTSVYESPYSDPEELKDKKLFLKRDNLLIADIELGCGNFGSVRQGVYRMRKKQIDVAIKVLKQGTEKADTEEMMREAQIMHQLDNPYIVRLIGVCQAEALMLVMEMAGGGPLHKFLVGKREEIPVSNVAELLHQVSMGMKYLEEKNFVHRDLAARNVLLVNRHYAKISDFGLSKALGADDSYYTARSAGKWPLKWYAPECINFRKFSSRSDVWSYGVTMWEALSYGQKPYKKMKGPEVMAFIEQGKRMECPPECPPELYALMSDCWIYKWEDRPDFLTVEQRMRACYYSLASKVEGPPGSTQKAE
Consider B1, for which, in series [1], the “protein kinase activity against the peptide substrate (column fractions)” value was “ZAP-70 fractions identified by protein kinase activity against the peptide substrate Lys-Lys-Lys-Lys-Ala-Asp-Glu-Glu-Asp-Tyr-Phe-Ile-Pro-Pro-Ala”. Further, in the series with Biotin-εAHA-DEEDYFE(Nle), the “Km (33P-γ-ATP phosphorylation of the biotin peptide, streptavidin filter plate capture)” value was found to be 15.79 µM.

B2: recombinant form of the Abelson murine leukaemia virus protein tyrosine kinase v-Abl (protein)
chain: YITPVNSLEKHSWYHGPVSRNAAEYLLSSGINGSFLVRESESSPGQRSISLRYEGRVYHYRINTASDGKLYVSSESRFNTLAELVHHHSTVADGLITTLHYPAPKRNKPTIYGVSPNYDKWEMERTDITMKHKLGGGQYGEVYEGVWKKYSLTVAVKTLKEDTMEVEEFLKEAAVMKEIKHPNLVQLLGVCTREPPFYIITEFMTYGNLLDYLRECNRQEVSAVVLLYMATQISSAMEYLEKKNFIHRDLAARNCLVGENHLVKVADFGLSRLMTGDTYTAHAGAKFPIKWTAPESLAYNKFSIKSDVWAFGVLLWEIATYGMSPYPGIDLSQVYELLEKDYRMERPEGCPEKVYELMRACWQWNPSDRPSFAEIHQAFETMFQESSISDEVEKELGKRG
As for B2, in series [2], the “phosphorylation of library peptide, anti-phosphotyrosine ELISA (absorbance at 450 nm); preferred substrate of Library Sub-Set 4” value was “The active site substrate recognition substrate for this enzyme for this Sub-Set was Serine-tyrosine-phenylalanine-histamine-glutamine [SEQ ID No. 21]”.

B3: recombinant form of the human CSK enzyme (protein)
chain: MSAIQAAWPSGTECIAKYNFHGTAEQDLPFCKGDVLTIVAVTKDPNWYKAKNKVGREGIIPANYVQKREGVKAGTKLSLMPWFHGKITREQAERLLYPPETGLFLVRESTNYPGDYTLCVSCDGKVEHYRIMYHASKLSIDEEVYFENLMQLVEHYTSDADGLCTRLIKPKVMEGTVAAQDEFYRSGWALNMKELKLLQTIGKGEFGDVMLGDYRGNKVAVKCIKNDATAQAFLAEASVMTQLRHSNLVQLLGVIVEEKGGLYIVTEYMAKGSLVDYLRSRGRSVLGGDCLLKFSLDVCEAMEYLEGNNFVHRDLAARNVLVSEDNVAKVSDFGLTKEASSTQDTGKLPVKWTAPEALREKKFSTKSDVWSFGILLWEIYSFGRVPYPRIPLKDVVPRVEKGYKMDAPDGCPPAVYEVMKNCWHLDAAMRPSFLQLREQLEHIKTHELHL
Take B3: the “phosphorylation of library peptide, anti-phosphotyrosine ELISA (absorbance at 450 nm); preferred substrate of the sub-set” value was “Library Sub-Set 2 Asp-Glu-Glu-Tyr-Phe [SEQ ID No. 17]” with Asp-Glu-Glu-Tyr-Phe; “Library Sub-Set 3 Asp-Glu-Tyr-His-Asn [SEQ ID No. 18]” with Asp-Glu-Tyr-His-Asn; “Library Sub-Set 5 Tyr-Pro-Ile-Glu-Val [SEQ ID No. 20]” in the series with Tyr-Pro-Ile-Glu-Val; “Library Sub-Set 4 Asp-Tyr-His-Leu-Phe [SEQ ID No. 19]” with Asp-Tyr-His-Leu-Phe; “Library Sub-Set 1 Asp-Glu-Glu-Glu-Tyr [SEQ ID No. 16]” in the series with Asp-Glu-Glu-Glu-Tyr.
